Test [1] concerns the target T1, soluble human IL-6 receptor (human, UniProt P08887 20-357).
T1 construct: also called hsIL-6R
T1 sequence: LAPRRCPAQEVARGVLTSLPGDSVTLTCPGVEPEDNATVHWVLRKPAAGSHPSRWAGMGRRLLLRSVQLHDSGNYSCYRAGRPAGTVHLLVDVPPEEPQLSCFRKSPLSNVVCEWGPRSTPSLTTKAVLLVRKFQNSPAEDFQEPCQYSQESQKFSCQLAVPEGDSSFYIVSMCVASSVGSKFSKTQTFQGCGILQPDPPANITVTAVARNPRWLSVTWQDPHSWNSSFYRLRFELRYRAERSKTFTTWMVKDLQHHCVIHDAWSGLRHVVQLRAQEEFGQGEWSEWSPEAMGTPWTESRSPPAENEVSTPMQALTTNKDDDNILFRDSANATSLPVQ
The experiment in a line: SPR 37C, 3 µM CaCl2.

The target in test [2] is T1, soluble human IL-6 receptor. As to the kind of experiment: SPR 37C, 3 µM Ca, estimated from Req.
The target in test [3] is T2, human FcRn (soluble, complexed with β2-microglobulin) (human, UniProt P61769 21-119). As to the kind of experiment: SPR pH7.0.
In test [4] the target is T2, human FcRn (soluble, complexed with …). The experiment in a line: SPR pH7.0. The source holds these as a separate data set.
For test [5] the target is unchanged. The experiment in a line: SPR pH7.0. This is another data set of the same source.
Test [6] deals with T3, mouse FcγRIV (mouse, UniProt A0A0B4J1G0 21-203).
T3 construct: bought; also called mFcgRIV
T3 sequence: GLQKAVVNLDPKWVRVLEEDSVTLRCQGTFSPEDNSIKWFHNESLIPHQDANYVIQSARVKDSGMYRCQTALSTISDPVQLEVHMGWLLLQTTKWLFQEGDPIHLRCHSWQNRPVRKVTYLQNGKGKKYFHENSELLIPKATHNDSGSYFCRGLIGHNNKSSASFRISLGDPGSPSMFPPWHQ
As to the kind of experiment: SPR pH7.4.

The target of test [7] is T4, mouse FcγRIIb (mouse, UniProt P08101 40-217, limits assumed).
T4 construct: bought; also called mFcgRIIb; mFcgRII
T4 sequence (looked up): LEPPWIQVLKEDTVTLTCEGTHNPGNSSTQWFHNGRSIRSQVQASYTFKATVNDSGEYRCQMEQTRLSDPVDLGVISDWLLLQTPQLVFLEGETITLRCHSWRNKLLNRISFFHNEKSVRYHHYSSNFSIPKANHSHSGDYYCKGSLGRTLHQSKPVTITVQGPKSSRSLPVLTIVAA
As to the kind of experiment: SPR pH7.4.

Test [8] addresses T5, mouse FcγRI (mouse, UniProt P26151 25-297).
T5 construct: bought; also called mFcgRI
T5 sequence (looked up): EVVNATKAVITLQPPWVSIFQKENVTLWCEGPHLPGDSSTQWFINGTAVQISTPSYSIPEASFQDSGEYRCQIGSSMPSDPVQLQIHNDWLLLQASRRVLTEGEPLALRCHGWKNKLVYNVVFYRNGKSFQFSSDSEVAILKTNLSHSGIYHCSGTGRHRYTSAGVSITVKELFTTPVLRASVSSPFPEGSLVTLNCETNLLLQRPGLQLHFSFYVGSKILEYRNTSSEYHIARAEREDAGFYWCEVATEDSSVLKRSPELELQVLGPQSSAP
The experiment in a line: SPR pH7.4.

For test [9], the target named is T6, mouse FcγRIII (mouse, UniProt P08508 31-215).
T6 construct: bought; also called mFcgRIII
T6 sequence (looked up): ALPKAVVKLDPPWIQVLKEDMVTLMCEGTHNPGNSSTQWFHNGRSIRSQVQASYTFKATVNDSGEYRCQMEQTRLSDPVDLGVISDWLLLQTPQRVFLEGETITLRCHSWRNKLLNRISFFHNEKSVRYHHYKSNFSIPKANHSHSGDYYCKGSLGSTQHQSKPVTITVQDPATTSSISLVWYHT
As to the kind of experiment: SPR pH7.4.

Test [10] concerns the target T2, human FcRn (soluble, complexed with …). As to the kind of experiment: SPR pH7.0. This is another data set of the same source.
For test [11] the target is unchanged. The experiment in a line: SPR pH7.0. This is another data set of the same source.
For test [12] the target is unchanged. The experiment in a line: SPR pH7.0. This is another data set of the same source.
For test [13] the target is unchanged. As to the kind of experiment: SPR pH7.0. The source holds these as a separate data set.
Test [14] has as its target T3, mouse FcγRIV. As to the kind of experiment: SPR pH7.4. This is another data set of the same source.
Test [15] addresses T4, mouse FcγRIIb. The experiment in a line: SPR pH7.4. This is another data set of the same source.
Test [16] deals with T5, mouse FcγRI. As to the kind of experiment: SPR pH7.4. The source holds these as a separate data set.
Test [17] addresses T6, mouse FcγRIII. The experiment in a line: SPR pH7.4. The source holds these as a separate data set.
Test [18] has as its target T2, human FcRn (soluble, complexed with …). The experiment in a line: SPR pH7.0. The source holds these as a separate data set.
Test [19] has the same target. The experiment in a line: SPR pH7.0. The source holds these as a separate data set.
Test [20] shares this target. As to the kind of experiment: SPR pH7.0. The source holds these as a separate data set.
Test [21] has the same target. As to the kind of experiment: SPR pH7.0. This is another data set of the same source.

For ten molecules, Kd and binding amount results are on record in patent EP2698431B1 (Chugai Seiyaku Kabushiki Kaisha, dated 2020).

Substitutions are numbered along the chain they refer to. Where two headings read alike, the source gives them in different places.

T2 sequence (P61769 21-119, one chain of several): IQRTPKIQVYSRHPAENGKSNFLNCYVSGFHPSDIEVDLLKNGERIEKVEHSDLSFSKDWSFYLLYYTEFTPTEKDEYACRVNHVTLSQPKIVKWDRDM

B1: FH4-IgG1 (antibody, V domains shown)
VH: QVQLVQSGAEVKKPGSSVKVSCKASGGTFSSYAISWVRQAPGQGLEWMGGIIPIFGTANYAQKFQGRVTITADESTSTAYMELSSLRSEDTAVYYCARERDYYDSSGYYDAFDIWGQGTMVTVSS
VL: ETTVTQSPSFLSASVGDRVTITCITTTDIDDDMNWFQQEPGKAPKLLISEGNILRPGVPSRFSSSGYGTDFTLTISKLQPEDFATYYCLQSDNLPFTFGQGTKLEIKR
What is called Kd is a measure of binding affinity in units of concentration. With B1, the figures for the dissociation constant (Kd) in [1] and in [2] were no less than 34000 nM and roughly 34000 nM, respectively.

B2: VH3/L(WT)-IgG1-F21 (antibody)
chain 1: QVQLQESGPGLVKPSETLSLTCAVSGHSISHDHAWSWVRQPPGEGLEWIGFISYSGITNYNPSLQGRVTISRDNSKNTLYLQMNSLRAEDTAVYYCARSLARTTAMDYWGEGTLVTVSSASTKGPSVFPLAPSSKSTSGGTAALGCLVKDYFPEPVTVSWNSGALTSGVHTFPAVLQSSGLYSLSSVVTVPSSSLGTQTYICNVNHKPSNTKVDKKVEPKSCDKTHTCPPCPAPELLGGPSVFLFPPKPKDTLYISRTPEVTCVVVDVSHEDPEVKFNWYVDGVEVHNAKTKPREEQYNSTYRVVSVLTPLHQDWLNGKEYKCKVSNKALPAPIEKTISKAKGQPREPQVYTLPPSRDELTKNQVSLTCLVKGFYPSDIAVEWESNGQPENNYKTTPPVLDSDGSFFLYSKLTVDKSRWQQGNVFSCSVMHEALHYHYTQKSLSLSP
chain 2: not shown
In the case of B2, the Kd in test [3], in [4] and in [5] was 30 nM each time. For the same molecule, the binding amount with mouse FcγRIV [6] is 242 RU; with mouse FcγRIIb [7], 112 RU; with mouse FcγRI [8] it was 315 RU; in the test with mouse FcγRIII [9], 371 RU.

B3: VH3/L(WT)-IgG1-F424 (antibody)
chain 1: B2 chain 1 with S241K, Y254M, P259A, M430L
chain 2: not shown
With B3, the Kd in test [4] and in test [10] was 94 nM each time. The figures for the binding amount in the test with mouse FcγRIV [6] and with mouse FcγRIIb [7] were 138 RU and -2.5 RU, respectively.

B4: VH3/L(WT)-IgG1-F890 (antibody)
chain 1: B2 chain 1 with P310V, Y438V
chain 2: not shown
For the molecule B4, the Kd in test [11] came to 110 nM; in test [12], 107 nM; in test [13], 110 nM. Also, the binding amount is 230 RU with mouse FcγRIV [14], 69.3 RU with mouse FcγRIIb [15], 268 RU with mouse FcγRI [16] and 284 RU with mouse FcγRIII [17].

B5: VH3/L(WT)-IgG1-F140 (antibody)
chain 1: B2 chain 1 with S241K
chain 2: not shown
In the case of B5, the Kd in test [4], in [5] and in test [18] was 36 nM in each case. In addition, the binding amount was 108 RU in the test with mouse FcγRIV [6], -1.8 RU with mouse FcγRIIb [7] and 46.6 RU with mouse FcγRIII [9].

B6: VH3/L(WT)-IgG1-F939 (antibody)
chain 1: B2 chain 1 with L237R, S241K, P310V, Y438V
chain 2: not shown
Consider B6, for which the Kd turned out to be 150 nM in [11], 153 nM in [12] and 150 nM in [19]. The binding amount in the test with mouse FcγRIV [14] is -7.3 RU; with mouse FcγRIIb [15], -6.3 RU; with mouse FcγRI [16], -2 RU; in the test with mouse FcγRIII [17], -24.9 RU.

B7: VH3/L(WT)-IgG1-F821 (antibody)
chain 1: B2 chain 1 with L237R, S241K, P310V
chain 2: not shown
Consider B7, for which the equilibrium dissociation constant (Kd) in [11] and in test [20] was 310 nM each time. For the same molecule, the binding amount with mouse FcγRIV [14] was -3.8 RU; with mouse FcγRIIb [15], -4.5 RU; in the test with mouse FcγRI [16], 0.6 RU; with mouse FcγRIII [17], -20.3 RU.

B8: VH3/L(WT)-IgG1-F157 (antibody)
chain 1: B2 chain 1 with Y254M, P259A, M430L
chain 2: not shown
Consider B8, for which the Kd in test [4] and in [18] was 150 nM in each case. For the same molecule, the binding amount was found to be 243 RU in the test with mouse FcγRIV [6], 129 RU with mouse FcγRIIb [7], 315 RU in the test with mouse FcγRI [8] and 276 RU in the test with mouse FcγRIII [9].

B9: VH3/L(WT)-IgG1-F1009 (antibody)
chain 1: B2 chain 1 with L237R, S241K, T252V, T309Q, Q313A, Y438V
chain 2: not shown
For the molecule B9, the Kd in test [11], in [12] and in test [21] was 12 nM each time. The binding amount was 7.2 RU in the test with mouse FcγRIV [14], -1.5 RU in the test with mouse FcγRIIb [15], 0.6 RU with mouse FcγRI [16] and -12.9 RU in the test with mouse FcγRIII [17].

B10: 6RL#9-IgG1 (antibody, V domains shown)
VH: QVQLVQSGAEVKKPGASVKVSCKASGYTFTSYYMHWVRQAPGQGLEWMGIINPSGGSTSYAQKFQGRVTMTRDTSTSTVYMELSSLRSEDTAVYYCARDDPGGGEYYFDYWGQGTLVTVSS
VL: QSVLTQPPSVSGAPGQRVTISCTGSRSNMGAGYDVHWYQLLPGAAPKLLISHNTHRPSGVPDRFSGSKSGASASLAITGLQAEDEADYYCQSHDSSLSAVVFGGGTKLTVLS
Turning to B10, the equilibrium dissociation constant (Kd) in test [1] was no less than 31000 nM; in [2], roughly 31000 nM.
